Test results reported in patent US20210122804A1, “PEPTIDE LIGANDS FOR BINDING TO CD38” (BicycleTx Limited, priority 2018, published 2021).
*1 amine or outer side, *2 acyl side, *3 side chain or, on linkers, in order; H or OH if unused. Bridges are numbered along the chain shown (N, C = ends). Where no end group is shown, it is not given here. TATA = O=C(CC[*:1])N1CN(C(=O)CC[*:2])CN(C(=O)CC[*:3])C1; TBMB = c1c(C[*:1])cc(C[*:3])cc1C[*:2]

T1: human CD38 (Homo sapiens, UniProt P28907)
T1 sequence (P28907 1-300): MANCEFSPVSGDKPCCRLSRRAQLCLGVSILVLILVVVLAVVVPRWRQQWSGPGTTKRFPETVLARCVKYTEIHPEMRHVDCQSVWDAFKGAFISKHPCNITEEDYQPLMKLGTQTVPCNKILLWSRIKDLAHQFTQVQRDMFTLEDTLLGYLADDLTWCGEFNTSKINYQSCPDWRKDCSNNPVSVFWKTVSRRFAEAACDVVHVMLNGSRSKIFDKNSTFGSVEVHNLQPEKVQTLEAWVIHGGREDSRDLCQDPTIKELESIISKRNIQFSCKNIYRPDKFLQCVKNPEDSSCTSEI

T2: human CD38 (human, UniProt P28907 43-300, limits assumed)
T2 construct: construct used is not described; also called hCD38
T2 sequence (looked up): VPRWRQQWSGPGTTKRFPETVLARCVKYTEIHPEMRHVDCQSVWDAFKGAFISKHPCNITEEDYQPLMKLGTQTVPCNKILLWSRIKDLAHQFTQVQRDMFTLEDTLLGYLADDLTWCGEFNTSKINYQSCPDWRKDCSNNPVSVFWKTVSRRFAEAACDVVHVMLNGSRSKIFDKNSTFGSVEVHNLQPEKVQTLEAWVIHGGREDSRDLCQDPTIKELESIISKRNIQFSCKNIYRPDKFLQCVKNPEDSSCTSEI


Assays:
human CD38 [1] = target: T1, human CD38; test: CD38 Competition Binding Assay (fluorescence polarisation); settings: compared with all-thioether Reference Example 1
Description: CD38 Competition Binding Assay Affinity of various bicycle peptide compounds for human CD38 (Ki) was determined using a fluorescence polarisation assay, using the method reported by Lea et al (Expert Opin Drug Discov. 2011 6(1): 17-3) and using the following fluorescently labelled peptides […]-Sar6-K(F1) for TBMB derivatives and […]-Sar6-K(F1) for TATA derivatives where Fl is a fluorescein molecule.

human CD38 [2] = target: T2, human CD38; test: fluorescence polarisation competition; tracer m11
human CD38 [3] = target: T2, human CD38; test: fluorescence polarisation competition; tracer m10

Molecule	Ki (human CD38 [2]) [nM]	other results
[Ac]ACVPCADFPIWYC [BCY00009245]	–	affinity to CD38 (in words) (human CD38 [1]): high affinity
ACYWNPFTACWSCEND (linker 2-10-13 via TATA (inferred), bicyclic) [66-50-16-T01-N001]	90	–
ACYWNPFTACYSCTEN (linker 2-10-13 via TATA (inferred), bicyclic; also called 66-50-19-T02-N001) [66-50-19-T002-N001]	316	–
ACFTLDGECFLLGENCA (linker 2-9-16 via TBMB, bicyclic) [66-08-52-N001]	–	Ki (human CD38 [3]): 562 nM
